B1: 367_C01 (antibody, V domains shown)
VH: EVQLLESGGGLVQPGGSLRLSCAASGFTFDDYSMNWVRQAPGKGLEWVSGINYNGGYKSYADSVKGRFTISRDNSKNTLYLQMNSLRAEDTAVYYCARSANWHDTHLDYWGQGTLVTVSS
VL: DIQMTQSPSSLSASVGDRVTITCRASQSILTYLNWYQQKPGKAPKLVIYATTSLHSGVPSRFSGSGSGTDFTLTISSLQPEDFATYYCQQSYDTPLTFGGGTKVEIK
B2: 367_D10 (antibody, V domains shown)
VH: B1 VH with D31S, S33G, G50N, K58T, H106A
VL: B1 VL with L30I, T31S, T51A, L54R, H55A
B3: 367_G10 (antibody, V domains shown)
VH: B1 VH with S33G, K58T, H106A
VL: B1 VL with L30I, T31S, L33V, V47L, T51A, L54R, H55A, T94S
B4: 367_E09 (antibody, V domains shown)
VH: B1 VH with D30S, S33G, S49A, G50S, G55S, S59G, H106A
VL: B1 VL with T31S, L54R, H55A, D93E
B5: 367_G06 (antibody, V domains shown)
VH: B1 VH with D30S, D31S, S33G, G55S
VL: B1 VL with L33V, V47L
B6: 367_F07 (antibody, V domains shown)
VH: B1 VH with D31S, S33G, N35H, S49A, G50N, K58T, S59G, H106A
VL: B1 VL with L30I, T31S, L33V, V47L, T51A, L54R, H55A, D93E
B7: 367_E11 (antibody, V domains shown)
VH: B1 VH with D31S, S33G, G50S, G55S, S59G
VL: B1 VL with L30V, T31S, L33V, T51A, L54R
B8: 367_E01 (antibody, V domains shown)
VH: B1 VH with D30S, D31S, S33G, S49A, H106A
VL: B1 VL with T31S, L33V, V47L, L54R, H55A, T94L
B9: 367_E04 (antibody, V domains shown)
VH: B1 VH with D30S, G50S, S59G
VL: B1 VL with T31S, V47L, T51A, L54R, H55A, D93E, T94S
B10: 367_C05 (antibody, V domains shown)
VH: B1 VH with S33G, G50S, K58T, S59G
VL: B1 VL with T31S, L33V, T51A, L54R, T94L
B11: 367_G05 (antibody, V domains shown)
VH: B1 VH with D30S, S33G, S49A, G50N, K58T, H106A
VL: B1 VL with L30V, T31S, T51A, H55A
B12: 367_F03 (antibody, V domains shown)
VH: B1 VH with D30S, D31S, S49A, G55S, H106A
VL: B1 VL with T31S, L33V, T51A, H55A, Y92D
B13: 373_B07 (antibody, V domains shown)
VH: B1 VH with D31S, K58T, S99G, H106A
VL: B1 VL with L33V, T51A, L54R, H55A, D93E, T94L
B14: 372_G12 (antibody, V domains shown)
VH: B1 VH with D31S, S49A, K58T, S59G, S99G
VL: B1 VL with T51A, L54R, T94S
B15: 373_F11 (antibody, V domains shown)
VH: B1 VH with D31S, S33G, N35H, G55S, K58T, S99G
VL: B1 VL with L30V, T31S, L33V, V47L, T51A, L54R, H55A, D93N, T94L
B16: 374_A06 (antibody, V domains shown)
VH: B1 VH with D30S, D31S, G50S, G55S, K58T, S99G
VL: B1 VL with T31S, T51A, L54R, H55A, T94S
B17: 373_C10 (antibody, V domains shown)
VH: B1 VH with D30S, D31S, S49A, K58T, S99G, H106A
VL: B1 VL with L33V, V47L, T51A, L54R, H55A, T94N
B18: 373_H03 (antibody, V domains shown)
VH: B1 VH with D30S, D31S, G55S, S99G, H106A
VL: B1 VL with T31S, V47L, L54R, H55A, D93E, T94N
B19: 373_E10 (antibody, V domains shown)
VH: B1 VH with D30S, K58T, S99G, H106A
VL: B1 VL with L33V, T51A, L54R, D93E
B20: 373_C03 (antibody, V domains shown)
VH: B1 VH with D30S, D31S, S99G, H106A
VL: B1 VL with L30V, T51A, L54R, H55A, T94S
B21: 373_A12 (antibody, V domains shown)
VH: B1 VH with D30S, D31S, G50S, K58T, S99G, H106A
VL: B1 VL with T51A, L54R, H55A
B22: 373_D03 (antibody, V domains shown)
VH: B1 VH with D30S, D31S, K58T, S99G, H106A
VL: B1 VL with L30V, T31S, V47L, T51A, H55A
B23: 373_A05 (antibody, V domains shown)
VH: B1 VH with D30S, G55S, S99G
VL: B1 VL with T31S, L33V, T51A, L54R, D93E, T94S
B24: 373_G08 (antibody, V domains shown)
VH: B1 VH with D31S, G50N, K58T, S99G, H106A
VL: B1 VL with V47L, T51A, H55A, T94S
B25: 373_F08 (antibody, V domains shown)
VH: B1 VH with D30S, D31S, K58T, S99G, H106A
VL: B1 VL with V47L, T51A, L54R, H55A
B26: 373_A09 (antibody, V domains shown)
VH: B1 VH with D31S, S49A, K58T, S99G, H106A
VL: B1 VL with V47L, T51A, H55A
B27: 367_H01 (antibody, V domains shown)
VH: B1 VH with D31S, S33G, S99A, H106A
VL: B1 VL with T51A, L54R, H55A, T94N
B28: 374_A09 (antibody, V domains shown)
VH: B1 VH with D30S, D31S, G50S, S59G, S99G
VL: B1 VL with L33V, V47L, T51A, H55A, T94S
B29: 373_H07 (antibody, V domains shown)
VH: B1 VH with D30S, D31S, S49A, K58T, S99G
VL: B1 VL with L30V, V47L, T51A, T52S, H55Q, T94S
B30: 371_H08 (antibody, V domains shown)
VH: B1 VH with D30S, D31S, S33G, S49A, G50S, S59G, S99G
VL: B1 VL with L30I, T31S, L33V, T51V, L54R, H55A
B31: 373_A01 (antibody, V domains shown)
VH: B1 VH with D30S, D31S, S33G, G50N, K58T, S59G, S99G
VL: B1 VL with L30V, L54R, H55A, D93N, T94L
B32: 372_D03 (antibody, V domains shown)
VH: B1 VH with D30S, D31S, S49A, G55S, S99G, H106A
VL: B1 VL with T31S, L33V, T51V, L54R, T94S
B33: 368_A02 (antibody, V domains shown)
VH: B1 VH with D31S, S33G, S49A, S99A
VL: B1 VL with L30I, T31S, L33V, T51A, L54R, H55A
B34: 373_C07 (antibody, V domains shown)
VH: B1 VH with D31S, S49A, G55S, K58T, S99G
VL: B1 VL with T51A, L54R, H55A, D93E
B35: 372_E01 (antibody, V domains shown)
VH: B1 VH with S59G, S99G, H106A
VL: B1 VL with L30V, T31S, T51A, L54R, T94S
B36: 371_H10 (antibody, V domains shown)
VH: B1 VH with D30S, D31S, S49A, G55S, S99G
VL: B1 VL with L30S, V47L, T51A, L54R, D93E, T94N
B37: 372_B02 (antibody, V domains shown)
VH: B1 VH with D30S, D31S, G55S, K58T, S99G, H106A
VL: B1 VL with T31S, L33V, V47L, T51V, H55A, D93E
B38: 373_D12 (antibody, V domains shown)
VH: B1 VH with D31S, G50S, G55S, S59G, S99G
VL: B1 VL with T31S, L33V, V47L, T51A, L54R, H55A, D93S, T94L
B39: 373_F12 (antibody, V domains shown)
VH: B1 VH with D30S, D31S, G50N, K58T, S59G, S99G, H106A
VL: B1 VL with L30S, T51A, L54R, H55A, D93E
B40: 373_H09 (antibody, V domains shown)
VH: B1 VH with D30S, D31S, S33G, S49A, G50S, G55S, S99G
VL: B1 VL with L30I, T51A, L54R, H55A, Y92D, T94S
B41: 373_A03 (antibody, V domains shown)
VH: B1 VH with D30S, S49A, G50N, K58T, S59G, S99G, H106A
VL: B1 VL with T31S, T51A, L54R, H55A, T94N
B42: 371_H06 (antibody, V domains shown)
VH: B1 VH with D31S, S33G, K58T, S99G, H106A
VL: B1 VL with L30S, T31S, T51V, L54R, H55A, T94L
B43: 373_B05 (antibody, V domains shown)
VH: B1 VH with D30S, G50N, S99G, H106A
VL: B1 VL with L30V, T51A, L54R, H55A, D93S, T94N
B44: 367_F06 (antibody, V domains shown)
VH: B1 VH with D30S, D31S, S33G, G50S, G55S, K58T, S99A, H106A
VL: B1 VL with L30S, T31S, L33V, V47L, T51V, L54R, H55A, T94S
B45: 373_A11 (antibody, V domains shown)
VH: B1 VH with D30S, D31N, S33G, S49A, G50N, K58T, S59G, S99G, H106A
VL: B1 VL with V47L, T51A, L54R, H55A, T94L

Results on 45 molecules are retold here after patent US20210380703A1.

Substitutions are numbered along the chain they refer to.

The first assay has as its target Human Fc (human). In words: ELISA, negative control.
The molecule B1 showed an optical density of 0.348 OD.
In the case of B2, the optical density was found to be 0.251 OD.
For B3, the optical density worked out at 0.286 OD.
B4 came in with an optical density of 0.249 OD.
Molecule B5 gave an optical density of 0.28 OD.
B6 registered an optical density of 0.242 OD.
Same read-out and setting: with B7 the figure was 0.244 OD.
Take B8: the optical density stood at 0.351 OD.
In turn, B9 gave an optical density of 0.284 OD.
The molecule B10 came in with an optical density of 0.255 OD.
B11: the optical density was 0.283 OD.
B12 displayed an optical density of 0.301 OD.

The next assay has as its target human Fc (human). In words: ELISA, negative control. Background: In an ELISA, binding on a coated surface is turned into a signal by an enzyme label.
Molecule B13 displayed an optical density of 0.208 OD.
For the molecule B14, the optical density is 0.439 OD.
In the case of B15, the optical density amounted to 0.204 OD.
The same measure, in the same setting: with B16 the figure was 0.173 OD.
Consider B17, for which the optical density worked out at 0.318 OD.
The same measure, in the same setting: the result for B18 reads 0.172 OD; that for B19, 0.188 OD; that for B20, 0.171 OD.
The same measure, in the same setting: with B21 the figure was 0.179 OD; with B22, 0.18 OD.
As to B23, the optical density turned out to be 0.172 OD.
B24: the optical density was determined as 0.172 OD.
B25 displayed an optical density of 0.202 OD.
B26 showed an optical density of 0.248 OD.
B27 came in with an optical density of 0.388 OD.
Molecule B28 showed an optical density of 0.231 OD.
As for B29, the optical density stood at 0.199 OD.
Still for that read-out and setting: the result for B30 reads 0.309 OD; that for B31, 0.177 OD.
For the molecule B32, the optical density is 0.319 OD.
On the same count and under the same terms, the result for B33 reads 0.376 OD.
Consider B34, for which the optical density is 0.206 OD.
B35: the optical density is 0.409 OD.
B36 yielded an optical density of 0.358 OD.
Molecule B37 showed an optical density of 0.371 OD.
B38 came in with an optical density of 0.224 OD.
Take B39: the optical density is 0.158 OD.
Same read-out and setting: with B40 the figure was 0.166 OD; with B41, 0.189 OD; with B42, 0.346 OD.
Molecule B43 had an optical density of 0.184 OD.
On the same count and under the same terms, the result for B44 reads 0.265 OD.
On to B45, for which the optical density stood at 0.184 OD.
